Paper PMC4265764 (2014)

What was measured:
superfolder GFP (sfGFP) = superfolder GFP (sfGFP) (UniProt P42212 = GFP, biotin (in-vivo biotinylated, in the ELISA)); experiment: FP
[1] = molecular target: T1, Green Fluorescent Protein (GFP) (UniProt P42212 1-238 = GFP, biotin on the avi-tag (in-vivo biotinylation)); experiment: FP
[2] = molecular target: T1, Green Fluorescent Protein (GFP); experiment: SPR
[3] = molecular target: T1, Green Fluorescent Protein (GFP); experiment: SPR; remark: listed apart in the source
[4] = molecular target: T1, Green Fluorescent Protein (GFP); experiment: FP; PBS with 0.03% BSA
[5] = molecular target: T1, Green Fluorescent Protein (GFP); experiment: FP; PBS with 0.005% Tween-20

Binder | Kd (superfolder GFP (sfGFP)) [nM] | Kd [1] [nM] | koff [2] [s⁻¹] | Kd [3] [nM] | Kd [4] [nM] | Kd [5] [nM]
DARPin 3G86.32 (designed binder) MRGSHHHHHHGSDLGKKLLEAARAGQDDEVRILMANGADVNALDRFGLTPLHLAAQRGHLEIVEVLLKCGADVNAADLWGQTPLHLAATAGHLEIVEVLLKYGADVNALDLIGKTPLHLTAIDGHLEIVEVLLKHGADVNAQDKFGKTAFDISIDNGNEDLAEILQKLN | 5.3 | < 5 | 0.00022 |  |  | 
DARPin 3G86.1 (designed binder) MRGSHHHHHHGSDLGKKLLEAARAGQDDEVRILMANGADVNALDRFGLTPLHLAAQRGHLEIVEVLLKCGADVNAADLWGQTPLHLAATAGHLEIVEVLLKNGADVNARDNIGHTPLHLAAWAGHLEIVEVLLKHGADVNAQDKFGKTAFDISIDNGNEDLAEILQKLN | 29 | < 5 | 0.000369 | 0.32 |  | 
DARPin 3G124 (designed binder) DLGKKLLEAARAGQDDEVRILMANGADVNAADDVGVTPLHLAAQRGHLEIVEVLLKYGADVNAADLWGQTPLHLAATAGHLEIVEVLLKNGADVNARDNIGHTPLHLAAWAGHLEIVEVLLKYGADVNAQDKFGKTAFDISIDNGNEDLAEILQ | 22 | < 5 | 0.000228 | 0.36 |  | 
DARPin 3G61 (designed binder) MRGSHHHHHHGSDLGKKLLEAARAGQDDEVRILMANGADVNALDEVGWTPLHLAAWGHLEIVEVLLKNGADVNAADIDGYTPLHLAAFSGHLEIVEVLLKYGADVNADDQAGFTPLHLAAIFGHLEIVEVLLKNGADVNAQDKFGKTAFDISIDNGNEDLAEILQKLN | 96 |  | 0.000797 | 1.1 | 76 | < 5
